This is an account of results in the RNAGym collection of RNA variant scans (doi:10.1073/pnas.2313332121).

To fix the notation:
B1: TPR t1 (parent)
chain: GACCAAUCUGCCCUCAGAGCUCGAGAACAUCUUCGGAUGCAGAGGAGGCAGGCUUCGGUGGCGCGAUAGCGCCAACGUCCUCAACCUCCAAUGCAUCCCACCACAUGAUGAUGCCUGAAGAGCCUUGGUUUUUUG

This data set covers variants of B1. The data set can be described thus: polymerase ribozyme fitness, log enrichment relative to wild type (log ratio); higher = more active; in vitro selection for triplet polymerase activity. In outline:
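In triplicate, a single round of in vitro selection was run on each mutant library, PCR-built and transcribed, covering one subunit of a heterodimeric triplet polymerase ribozyme. Frozen incubation at −7 °C followed annealing with a biotinylated primer, partner subunit and triplets, and extended constructs were then gel-excised, streptavidin-captured and taken through RT-PCR. Fitness is the logarithm of genotype enrichment over wild-type enrichment, from inverse-variance-weighted replicate averages of Illumina-sequenced inputs and outputs. […] only genotypes with ≥10 input reads and ≥1 read per output were kept.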
For C8U U32A U96A A121C U130C, the “polymerase ribozyme fitness (log ratio)” value was -3.85. U9A C12A G42U A46G C53G C70U U132A: the “polymerase ribozyme fitness (log ratio)” value was -2.02. With C8U G48C G69U, the “polymerase ribozyme fitness (log ratio)” value stood at 0.0683. The value for C8U G45U U59C U92A was -4.17; that for C8U C40A was -1.07. The value for U9A C97G A105G C115U G117A was -7.76; that for C8G A46U G117C was -1.21. Regarding C8A U21A A84U, the “polymerase ribozyme fitness (log ratio)” value was -0.224. As for C8U G71A C115U, the “polymerase ribozyme fitness (log ratio)” value is -1.94. The value for C8U G113A A121G was -0.604; that for C8U A26U A83C G127C U133A was -5.14; that for C8G G39A was -0.708. For C8G G47U G57A C73A C85G U106A U133A the value was -4.51; for C8U C73U U78C, 0.277.

Turning to U9A G19U A46U C56G U133G, the “polymerase ribozyme fitness (log ratio)” value was -4.95. For C8A U112C the value was 1.3.

For C8U C49G, the “polymerase ribozyme fitness (log ratio)” value was determined as 0.889.

On to C8U C62A, for which the “polymerase ribozyme fitness (log ratio)” value is -0.587. For C8U C62U the value was 0.699; for C8U C20U A37U A43U C72U A74U, -2.39. As for C8G U54G C64U C89G, the “polymerase ribozyme fitness (log ratio)” value was -4.42. The value for C8U C53U was 0.0512; that for C8G U9G C12G C49G was -0.256; that for C8G C11U C40U A90G C97U U129G was -1.14. For C8U C72G U96G the value was -1.03. For U9A A91C U92A C104U the value was -2.18; for C8G G117C C124A, -0.905; for C8U C12A A84C U116C, 0.149. Consider C8U U78G C98U, for which the “polymerase ribozyme fitness (log ratio)” value was -0.651. For C8U C12A G19U U59C G120A the value was -1.69. Regarding C8U G44A, the “polymerase ribozyme fitness (log ratio)” value was -0.0714. For the variant C8U A103C, the “polymerase ribozyme fitness (log ratio)” value was -4.8. In the case of U9A C115G, the “polymerase ribozyme fitness (log ratio)” value amounted to 1.95. Take U9A C53U C72U U92A G127A: the “polymerase ribozyme fitness (log ratio)” value was -3.85. For C8U G58A G93U G117U G128C the value was -5.28. As for C8G C20U G61A C101U, the “polymerase ribozyme fitness (log ratio)” value is -0.517. The value for C8U C73U U112A was 1.84; that for C8G C62A C94A G120U was 0.318; that for C8U C76A C79G C123G was 0.407.

As for C8U G61U A84C G120U, the “polymerase ribozyme fitness (log ratio)” value stood at 1.93.

For the variant C8G C11U C85U U130C, the “polymerase ribozyme fitness (log ratio)” value is -0.895.

In the case of U9A G10A C40A U78C G110U C123U, the “polymerase ribozyme fitness (log ratio)” value was -2.19. For C8G C20G C72U A95G, the “polymerase ribozyme fitness (log ratio)” value was -3.64. The value for U9A A18U U92C was -2.53; that for C8G C72G C82A C102U was -1.73; that for C8G G10A C12U G35A A66C C72G A121U G122C U130C was -7.42. The value for C8G C20U A46U G52C was -3.42; that for C8G U32C A66U was -0.651.

For the variant U9A A26U, the “polymerase ribozyme fitness (log ratio)” value is -1.79.

For the variant C8G C70G, the “polymerase ribozyme fitness (log ratio)” value was -1.84. The value for C8U C72G U92A C123A was -2.13; that for C8U U14A C72A C73U was -2.99; that for C8U C72G U87G C94U G122A was -0.203.

For C8G C62U U87A U112G G113U C123U G127A, the “polymerase ribozyme fitness (log ratio)” value is -4.35. The value for C8U G61U C88G U109A U133C was -4.61; that for C8A U133G was 0.0303.

Take C8U C31U C53U: the “polymerase ribozyme fitness (log ratio)” value is -4.36.

C8G G25A A26G C73U G128A: the “polymerase ribozyme fitness (log ratio)” value is -4.47. The value for C8G A50U C56A C79G A100G A111U was -5.8. The value for C8G A27U C89G was -4.7; that for C8G U38C G42A C56U C124A was -1.34. For C8G A27U C53U A111C C114G the value was -6.88; for C8U G113C, -1.19.

As for C8A U38G A43C G61C C123A, the “polymerase ribozyme fitness (log ratio)” value is -4.73. In the case of C8G G35C A50U A118U, the “polymerase ribozyme fitness (log ratio)” value is -5.01. Consider C8U G39U C49G G63A U78A G128A, for which the “polymerase ribozyme fitness (log ratio)” value was -3.94. The value for C8A U21G A50G C88A C124A was -0.0763; that for U9A A111U was -1.46; that for C8G C62U A118U U131C was 1.45. In the case of U9A C56A C82A C85A, the “polymerase ribozyme fitness (log ratio)” value is -0.979. For the variant U9A C49G G93C G120A U131A, the “polymerase ribozyme fitness (log ratio)” value was found to be 0.443. For C8G G45A C56U C72U C94A C101A the value was -2.54. For C8G G120C the value was 2.34; for C8G G120A, 1.78. For C8A U59C A105G C123A, the “polymerase ribozyme fitness (log ratio)” value was -2.08. The value for C8U A29U C62U A83C C88G A119G was -2.75; that for U9A A90C was -0.569.

Turning to C8U C15G A46U G113A, the “polymerase ribozyme fitness (log ratio)” value was -5.27.

Take C8G G10U G42A G45C: the “polymerase ribozyme fitness (log ratio)” value is -3.03.

Take C8G C12A G39A G61U A111U U130A: the “polymerase ribozyme fitness (log ratio)” value is -2.24.

As for C8U G57U, the “polymerase ribozyme fitness (log ratio)” value was -0.029. With C8U A111C, the “polymerase ribozyme fitness (log ratio)” value came out at 0.776. For U9A A46C A50C C82G the value was -0.971; for C8G C76U, -0.187. Turning to C8G C13G A37C G52C C86U, the “polymerase ribozyme fitness (log ratio)” value is -2.49. For C8U A18U C53U C79G G93C U130G the value was -4.48; for C8G A27U C104A U133A, -3.65; for C8G C22G G36A C85U U112A, -2.18. The value for C8G C40A was -1.11; that for C8U A43G C89G C98U G135U was -4.02.

U9A C70U: the “polymerase ribozyme fitness (log ratio)” value came to 0.25. For C8G G44A G63U U125G the value was -2.03. The value for C8G C13A A16U was 0.292; that for C8G U14G G61C A66C was -2.35. For C8G C40G G71U U81G C82U the value was -0.811. Regarding C8G U59G C82U C85A U126C, the “polymerase ribozyme fitness (log ratio)” value was -1.16. The value for C8G C15A G51U C76U C98U was -4.46; that for C8U U21A C22U A27G C31G C56U G60A C86A U87G C115A A121C was -5.4; that for C8U G36U U78C C88G C101A was -3.59. For C8U G39C the value was 0.0547; for C8G G48C A90U U112A, 0.378. In the case of U9A C85A C97U G117C C124A, the “polymerase ribozyme fitness (log ratio)” value was -3.01. The value for C8U U9G G57A was -0.23. For C8G G44C A84C C115U the value was -1.3; for U9A A18C G44A C70U G93C, -4.58; for C8G G10U A16C G77U U81A C85A, -3.62. Consider U9A A83G, for which the “polymerase ribozyme fitness (log ratio)” value is -0.27.

In the case of C8U G77C, the “polymerase ribozyme fitness (log ratio)” value was -0.262. For C8U A50U C104U C123U the value was 1.14. The value for C8U C49U C56U C70U C98A was -6.59; that for C8G G57A G117A A119U G135U was -2.27. For C8U C34U G35A C101A C114U the value was -6.15; for C8G U32C A90C, -0.367; for C8U U14G G17A A119G, -0.996.

On to C8A U30A A46C U109G A119U, for which the “polymerase ribozyme fitness (log ratio)” value is -6.8.

Take U9A C12U A37G G61A: the “polymerase ribozyme fitness (log ratio)” value is 0.106. For the variant C8G U87A, the “polymerase ribozyme fitness (log ratio)” value was 0.833. For C8U C40U G51C G120C the value was -1.98; for C8G C28A C72G, -3.76. The value for U9A C34A C72A C102U C123A G128U was -1.61; that for C8G G44A C101U was -0.462. For C8U U96A U125G U131C the value was -1.53; for U9A C62G C79G, -4.02.

Turning to U9A A37C G63C, the “polymerase ribozyme fitness (log ratio)” value was -0.708. The value for U9A A74G C104A C123A was -0.249; that for C8U C76G U96A G120U U129C was 0.287; that for C8G U14G G36U C62U C80U G120A was 0.635. As to U9A C20G, the “polymerase ribozyme fitness (log ratio)” value was -2.47. The value for C8A U14A G110A was -1.09; that for C8G G45C G51U G65A G113U C123U was -7.22.

Turning to U9A C99A, the “polymerase ribozyme fitness (log ratio)” value is -6.7. Take U9A C72U C123G U134G: the “polymerase ribozyme fitness (log ratio)” value turned out to be 2.67. The value for C8U U125A U130G was -0.351; that for C8G G45C G48A U54G was 0.0312; that for C8U C72G A84U U87C U92G was -4.49. For C8G U9G C22G, the “polymerase ribozyme fitness (log ratio)” value is -3.24. The value for U9A A27C U30C C56G A111U was -4.95.

Consider C8U G19C A43U C94A C115A G120U U133A, for which the “polymerase ribozyme fitness (log ratio)” value was -2.68. Regarding C8G U106G C114U, the “polymerase ribozyme fitness (log ratio)” value is -1.28.

As to C8U G71U U78C C98U A119U, the “polymerase ribozyme fitness (log ratio)” value was -1.03. For C8U C64A U78C C123U the value was -4.51.

As for U9A C15A G45C A108G, the “polymerase ribozyme fitness (log ratio)” value is -4.55. For C8G C123A the value was 0.956. For C8G C11U C70A C94U the value was -1.28; for C8G C15U G48C C124G, 0.169. The value for C8G G61C C72A C97U U130A was 0.551. For the variant C8G C22G, the “polymerase ribozyme fitness (log ratio)” value is -3.9. As to C8A U54G A111U U116G A119U U130G, the “polymerase ribozyme fitness (log ratio)” value is -7.62. The value for U9A A27U G42U was -4.71; that for C8A U59A was -0.964.

Regarding U9A C72U G110C U130A, the “polymerase ribozyme fitness (log ratio)” value is -4.28. Consider C8G A18U C98U, for which the “polymerase ribozyme fitness (log ratio)” value was -2.18. The value for C8G C11U was 1.67; that for C8G C12A C28G A29G G48U A68U C114A U125G was -6.52. The value for C8U G17U G36C G71U C82G was -4.44; that for C8G G45A G117A C123A U130G was 0.313; that for C8U G19C G42U C62G A91G C123U was -2.98. The value for C8U G51A was -1.3.

As for C8U C88U, the “polymerase ribozyme fitness (log ratio)” value was 0.472. Consider U9A A26G C101G C104A G122A, for which the “polymerase ribozyme fitness (log ratio)” value is -3.48. The value for C8U C72G G93A was -0.0349. For C8G C56A G77A, the “polymerase ribozyme fitness (log ratio)” value is -0.27. The value for C8G U21A U54C C72A was 0.0731; that for C8G C40G U54C C99U C104U was -2.91.

C8G A50C C72A G93A: the “polymerase ribozyme fitness (log ratio)” value was -0.538.

On to C8G C53U C89A, for which the “polymerase ribozyme fitness (log ratio)” value is -1.28. The value for U9A C12U C15A C53G U54C U106G was -3.06.
